One data set deals with T1, CYP6Z2 (Anopheles gambiae, UniProt A8I285).
T1 construct: recombinant membrane preparation from earlier work; cytochrome b5 added
T1 sequence (A8I285 1-492): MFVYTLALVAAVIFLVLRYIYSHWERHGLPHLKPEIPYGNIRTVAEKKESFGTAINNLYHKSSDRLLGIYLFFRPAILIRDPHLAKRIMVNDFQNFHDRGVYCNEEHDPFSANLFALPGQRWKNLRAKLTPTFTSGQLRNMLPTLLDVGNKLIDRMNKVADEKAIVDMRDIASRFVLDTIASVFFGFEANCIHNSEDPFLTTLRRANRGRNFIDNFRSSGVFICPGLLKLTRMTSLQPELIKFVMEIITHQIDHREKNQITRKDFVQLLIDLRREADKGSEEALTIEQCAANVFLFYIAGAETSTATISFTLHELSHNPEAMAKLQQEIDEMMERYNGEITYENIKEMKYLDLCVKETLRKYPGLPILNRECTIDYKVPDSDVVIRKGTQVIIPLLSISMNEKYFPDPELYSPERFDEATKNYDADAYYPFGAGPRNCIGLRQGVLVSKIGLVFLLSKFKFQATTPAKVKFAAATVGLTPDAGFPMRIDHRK
The data set is described as follows: resorufin fluorescence turnover, recombinant membranes. The settings on record: 5 µM substrate, NADPH regeneration, cyt b5, 0.1 M KPi pH 7.4, 25°C. Format: biochemical.

Substrate in data set [1]: CC1(C)C(C=C(Cl)Cl)C1C(=O)OCc1cccc(Oc2ccccc2)c1
Description: HPLC substrate depletion, recombinant E. coli membranes, Michaelis-Menten fit. Format: biochemical, Aedes aegypti. The conditions noted are these: 0.1 µM P450, 0.8 µM cyt b5, NADPH regeneration, 200 mM Tris-HCl pH 7.4, 30°C, 10 min, apparent. An excerpt:
(§1) HPLC substrate depletion, recombinant E. coli membranes, Michaelis-Menten fit on CYP9J26

Substrate in data set [2]: CC1(C)[C@H](C(=O)O[C@H](C#N)c2cccc(Oc3ccccc3)c2)[C@@H]1C=C(Br)Br
The data set is described as above. In kind it is biochemical, Aedes aegypti. The conditions noted are these: 0.1 µM P450, 0.8 µM cyt b5, NADPH regeneration, 200 mM Tris-HCl pH 7.4, 30°C, 10 min, apparent.
Text: as §1

Substrate in data set [3]: CC1(C)C(C=C(Cl)Cl)C1C(=O)OCc1cccc(Oc2ccccc2)c1
Described as above. The settings on record: 0.1 µM P450, 0.8 µM cyt b5, NADPH regeneration, 200 mM Tris-HCl pH 7.4, 30°C, 10 min, apparent. Format: biochemical, Aedes aegypti. An excerpt:
(§2) HPLC substrate depletion, recombinant E. coli membranes, Michaelis-Menten fit on CYP9J32
This is another data set of the same source.

Substrate in data set [4]: CC1(C)[C@H](C(=O)O[C@H](C#N)c2cccc(Oc3ccccc3)c2)[C@@H]1C=C(Br)Br
Described as above. Format: biochemical, Aedes aegypti. The settings on record: 0.1 µM P450, 0.8 µM cyt b5, NADPH regeneration, 200 mM Tris-HCl pH 7.4, 30°C, 10 min, apparent.
Text: as §2
This is another data set of the same source.

The results in this text go back to PMC3313934, “Pinpointing P450s Associated with Pyrethroid Metabolism in the Dengue Vector, Aedes aegypti: Developing New Tools to Combat Insecticide Resistance” (PLoS Neglected Tropical Diseases, 2012).

The term Km denotes the concentration of substrate that gives half-maximal velocity. In general, kcat refers to the maximal rate divided by the concentration of active sites.

For the molecule `COc1ccc2nc3ccc(=O)cc-3oc2c1` [RME], the “resorufin fluorescence turnover, recombinant membranes” value at CYP6Z2 was “greatest activity towards RME for the resorufin ethers and L-ME for the proluciferins”.

B1: CYP9J26 (Aedes aegypti) (protein)
chain: MEVELLHVGVLVAIVAFLYRWITRNNDYFHDKPIPSMAVTPFLGASGPLLLRKVTFNDFVQSIYNKYPGVKVFGMFDTITPFFVIRDPELIKQIGIKDFDHFVDHRPTFGLDDETAEHPKALFRKTLFSMTGQRWKEMRATLSPAFTGSKMRQMFSLMSECCDEMMKHYLDKAKGSGRVEVEMKDLLSRISINVIASCAFGIKVDCFKEQEHEFLYHGRKMMGFGRPIVIARMLAMRVFPKFAAKFGIDLLDREQANYFTHVFQETIRARESHGYIRHDMIDLLLQARKGTLKYQEEKDDQEGFATVQESDVGKADVSKSMTEAEMIAQCLIFFLGGFDTVSTCAMFTAYELVRNPEVQHKLYEEIKQTEKELEGKPLSYDALQKMKYMDMVVSETLRMWPLAPATDRLCTQDYTIDDGQGVRFTIDKGTCVWFPAAGLHHDPQYFPNPEKFDPERFNDENKRNINLGAYLPFGIGPRNCIGSRFALMEVKAVMYFILLKFSFVRGAKTQIPMQLRKGFTNLGPENGMHVELKLR
notes: full-length, ompA-Ala-Pro leader at N-terminus, pCW-ori+, E. coli DH5alpha membranes; co-expressed An. gambiae CPR, added An. gambiae cytochrome b5
Turning to B1, the results for the Km in data set [1] and in data set [2] were 4.2 ± 0.9 µM and 1.2 ± 0.2 µM, respectively. Moreover, the turnover number (kcat) in data set [1] amounted to 0.01 ± 0.00167 s⁻¹; in data set [2] it was 0.00367 ± 0.000167 s⁻¹.

B2: CYP9J32 (Aedes aegypti) (protein)
chain: VIYRQVKKHYDYFHDKPIPSMATVPLLGSTGPLMTKRCTFNDFIQTIYNKYPSAKIFGLFDMTTKMFVLRDPEVIKKITVKDFEYFVDRRPLFGANKEDDGNENILFNKTLVGMVDQRWRDMRAILSPAFTGSKMRAMFELIEQYCTQMVPILKEQSAESGYVDYEMKDFFSRVANDIIATCAFGLQVESLKSRDNEFYTMGKQMMNFNRFIVLLRVMGLRFFPSLMIKMGVDIVDREQNQYFSKIIKEAVRARETHGIVRPDMIHLLMQARKGTLKHQQETTESTAGFATVEESDVGKSVVSKTMSEPEFIAQCLIFFLAGFDTVSTGMLFMAYELALNPDIQQKLYEEIAQTNKELGGKPATYDTLQKMKYMDMVVSESLRMWPVAAFDRKCGRDYVLDDGAGLKFTIDAGTCIWVPVYGIHRDPKYYPNPDKFEPERFSDENRGKIDMTMYMPFGMGPRNCIGSRFALMEIKAIMYALLLNFSIERNEKTQVPLKLVKGFVGLQVENGLHLRFKKRK
notes: full-length, ompA leader with Ala-Gly linker at N-terminus, E. coli DH5alpha membranes; co-expressed An. gambiae CPR, added An. gambiae cytochrome b5
Take B2: the values for the Km in data set [3] and in data set [4] were 2.3 ± 1.1 µM and 5.2 ± 2.1 µM, respectively. Further, the kcat in data set [3] was found to be 0.0133 ± 0.00167 s⁻¹; in data set [4], 0.05 ± 0.00833 s⁻¹.
